Columns and labels:
[1] = molecular target: T1, CYP2C8-K399R (human) (UniProt P10632)
T1 sequence: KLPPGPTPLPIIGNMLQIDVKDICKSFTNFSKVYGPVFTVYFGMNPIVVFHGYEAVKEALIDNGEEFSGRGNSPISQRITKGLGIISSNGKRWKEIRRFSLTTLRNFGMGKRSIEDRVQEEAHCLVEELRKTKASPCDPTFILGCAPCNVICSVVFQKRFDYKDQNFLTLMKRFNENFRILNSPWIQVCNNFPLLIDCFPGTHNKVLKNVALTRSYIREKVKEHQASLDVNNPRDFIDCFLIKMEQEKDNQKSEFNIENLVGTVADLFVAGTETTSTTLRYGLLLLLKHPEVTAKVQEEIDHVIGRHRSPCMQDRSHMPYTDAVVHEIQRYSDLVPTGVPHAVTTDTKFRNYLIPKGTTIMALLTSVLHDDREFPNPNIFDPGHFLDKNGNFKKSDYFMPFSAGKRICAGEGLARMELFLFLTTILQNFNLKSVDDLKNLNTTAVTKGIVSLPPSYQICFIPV

[2] = molecular target: T2, Cytochrome P450 2C8 (CYP2C8*1, wildtype) (human) (UniProt P10632)
T2 sequence: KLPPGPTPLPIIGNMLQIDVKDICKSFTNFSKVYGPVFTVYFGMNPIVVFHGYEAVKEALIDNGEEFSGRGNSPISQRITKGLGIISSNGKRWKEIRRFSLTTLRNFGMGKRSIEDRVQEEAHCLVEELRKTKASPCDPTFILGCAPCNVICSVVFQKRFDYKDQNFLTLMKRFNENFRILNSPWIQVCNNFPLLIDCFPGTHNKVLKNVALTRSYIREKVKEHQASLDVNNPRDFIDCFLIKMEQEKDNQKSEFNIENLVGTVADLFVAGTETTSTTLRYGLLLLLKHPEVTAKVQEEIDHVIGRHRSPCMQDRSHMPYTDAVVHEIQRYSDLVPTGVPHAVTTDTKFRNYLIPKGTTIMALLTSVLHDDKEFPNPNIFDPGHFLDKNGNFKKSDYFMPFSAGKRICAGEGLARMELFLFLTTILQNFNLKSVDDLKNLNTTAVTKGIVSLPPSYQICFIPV

[3] = molecular target: T3, Cytochrome P450 2C8 R139K/K399R (CYP2C8*3) (human) (UniProt P10632)
T3 sequence: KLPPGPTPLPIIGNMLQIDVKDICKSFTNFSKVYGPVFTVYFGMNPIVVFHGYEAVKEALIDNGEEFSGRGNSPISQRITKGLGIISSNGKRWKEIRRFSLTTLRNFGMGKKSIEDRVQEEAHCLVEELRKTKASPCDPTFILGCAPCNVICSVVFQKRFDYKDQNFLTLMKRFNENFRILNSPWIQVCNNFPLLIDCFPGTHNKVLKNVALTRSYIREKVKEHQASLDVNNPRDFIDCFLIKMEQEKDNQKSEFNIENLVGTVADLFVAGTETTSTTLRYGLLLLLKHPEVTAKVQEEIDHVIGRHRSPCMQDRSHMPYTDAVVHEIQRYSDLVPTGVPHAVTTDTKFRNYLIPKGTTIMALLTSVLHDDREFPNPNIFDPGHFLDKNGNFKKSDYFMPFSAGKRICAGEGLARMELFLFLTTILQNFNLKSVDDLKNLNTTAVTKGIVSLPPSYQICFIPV

[4] = molecular target: T4, CYP2C8-R139K (human) (UniProt P10632)
T4 sequence: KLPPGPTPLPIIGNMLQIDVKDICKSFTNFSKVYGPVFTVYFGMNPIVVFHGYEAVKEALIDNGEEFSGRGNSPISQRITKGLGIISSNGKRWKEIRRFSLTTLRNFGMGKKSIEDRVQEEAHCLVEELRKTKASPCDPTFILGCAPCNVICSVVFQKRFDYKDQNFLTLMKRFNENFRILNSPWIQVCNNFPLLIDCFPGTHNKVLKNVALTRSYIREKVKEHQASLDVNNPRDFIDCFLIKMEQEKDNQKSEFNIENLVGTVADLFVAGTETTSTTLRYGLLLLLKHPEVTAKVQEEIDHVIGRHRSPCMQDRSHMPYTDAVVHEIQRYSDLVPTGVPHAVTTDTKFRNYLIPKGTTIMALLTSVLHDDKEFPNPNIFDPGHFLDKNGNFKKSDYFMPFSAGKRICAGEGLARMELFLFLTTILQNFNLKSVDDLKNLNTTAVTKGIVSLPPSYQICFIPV

B1: Cytochrome P450 reductase (enzyme)
chain: MGDSHEDTSATMPEAVAEEVSLFSTTDMVLFSLIVGVLTYWFIFRKKKEEIPEFSKIQTTAPPVKESSFVEKMKKTGRNIIVFYGSQTGTAEEFANRLSKDAHRYGMRGMSADPEEYDLADLSSLPEIDKSLVVFCMATYGEGDPTDNAQDFYDWLQETDVDLTGVKFAVFGLGNKTYEHFNAMGKYVDQRLEQLGAQRIFELGLGDDDGNLEEDFITWREQFWPAVCEFFGVEATGEESSIRQYELVVHEDMDVAKVYTGEMGRLKSYENQKPPFDAKNPFLAAVTANRKLNQGTERHLMHLELDISDSKIRYESGDHVAVYPANDSALVNQIGEILGADLDVIMSLNNLDEESNKKHPFPCPTTYRTALTYYLDITNPPRTNVLYELAQYASEPSEQEHLHKMASSSGEGKELYLSWVVEARRHILAILQDYPSLRPPIDHLCELLPRLQARYYSIASSSKVHPNSVHICAVAVEYEAKSGRVNKGVATSWLRAKEPAGENGGRALVPMFVRKSQFRLPFKSTTPVIMVGPGTGIAPFMGFIQERAWLREQGKEVGETLLYYGCRRSDEDYLYREELARFHKDGALTQLNVAFSREQAHKVYVQHLLKRDREHLWKLIHEGGAHIYVCGDARNMAKDVQNTFYDIVAEFGPMEHTQAVDYVKKLMTKGRYSLDVWS
stopped-flow CO binding (first electron transfer from CPR), fast phase k1, 1:1 CPR:CYP, 70 uM paclitaxel, 37 °C [1]: 0.445 s⁻¹
stopped-flow CO binding (first electron transfer from CPR), slow phase k2, 1:1 CPR:CYP, 70 uM paclitaxel, 37 °C [1]: 19.4 ms^-1
stopped-flow CO binding (first electron transfer from CPR), fast phase k1, 1:1 CPR:CYP, 70 uM paclitaxel, 37 °C [2]: 0.468 s⁻¹
stopped-flow CO binding (first electron transfer from CPR), monophasic k2, 3:1 CPR:CYP, 70 uM paclitaxel, 37 °C [3]: 13.7 ms^-1
stopped-flow CO binding (first electron transfer from CPR), fast phase k1, 1:1 CPR:CYP, 70 uM paclitaxel, 37 °C [4]: 0.406 s⁻¹
stopped-flow CO binding (first electron transfer from CPR), monophasic k2, 3:1 CPR:CYP, 70 uM paclitaxel, 37 °C [4]: 6.02 ms^-1
